Article PMC4066849 (Structure (London, England : 1993), 2014)
Where a chain is given by its changes, count along the chain named. In names and notes the source's numbering stands.

B1: MiD51Δ1–133 (domain or fragment, mouse, UniProt Q8BGV8 134-463, looked up)
chain: SLQEKLLSYYRNRAAIPAGEQARAKQAAVDICAELRSFLRAKLPDMPLRDMYLSGSLYDDLQVVTADHIQLIVPLVLEQNLWSCIPGEDTIMNVPGFFLVRRENPEYFPRGSSYWDRCVVGGYLSPKTVADTFEKVVAGSINWPAIGSLLDYVIRPAPPPEALTLEVQYEKDKHLVIDFLPSVTLGDTVLVARPHRLAQYDNLWRLSLRPAETARLRALDQADSGCRSLCLKILKAICKSTPALGHLTASQLTNVILHLAQEEADWSPDMLADRFLQALRGLISYLEAGVLPSALNPKVNLFAELTPQEIDELGYTLYCSLSEPEVLLQT
B2: MiD51 H201A mutant (MiD51Δ1–133 H201A) (domain or fragment, mouse, UniProt Q8BGV8 134-463, looked up)
chain: B1 chain with H68A

Target: the molecule itself
Assay: crystal structure

Row | Protein | stoichiometry N
1 | B1 | 2
2 | B2 | 2
